B1: TMEM175 (parent)
chain: QTSAFARQPRDELERVRVSCTIIF
B2: RAD51 (parent)
chain: APKKELINIKGISEAKADKILAEA

Variants of: B1
Assay: protein stability index of a GFP-peptide fusion (GPS, HEK-293T) (PSI 1-6); higher = more stable
Conditions: c terminus: a fixed tail appended
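Also: lentivirally expressed fusions sorted by FACS into six bins by GFP to DsRed ratio, PSI derived from sequencing read proportions per bin multiplied by bin number.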

Protein stability index, by site and new letter:
V16: T 1.4, G 1.14, Q 2.53, E 2.22, W 2.56, I 2.63, N 2.04, F 2, Y 2.81, L 1.91, D 1.98, K 1.97, H 2.65, R 2.47, S 1.83, A 2.06, M 1.16
R17: L 4.15, N 3.17, P 2.09, A 3.04, C 1.28, H 2.73, Y 4.15, S 2.35, F 2, D 2.58, M 2.91, I 2.2, G 2.53, E 2.92, Q 3.06
I22: W 2.02, K 3.06, C 2.08, R 2.42, N 3.05, G 2.94, S 2.28, V 2.17, E 2.91, H 2.72, Y 1.69, M 1.88, F 1.65, A 1.99, Q 2.62, T 2.71, P 3.2, L 2.49, D 3.54
V18: W 2.19, I 2.49, P 2.47, K 2.41, S 2.23, L 1.08, T 2.2, M 1.88, C 1.82, D 2.02, Y 2.11, Q 1.71, N 2.35, G 1.79, E 2.31, A 2.53, F 2.17, R 1.57, H 1.83
E12: Q 1.9, M 1.89, S 2.72, H 2.73, W 1.9, I 2.56, Y 2.81, T 2.95, K 2.07
L13: G 1.59, C 3.23, M 2.23, T 1.99, S 2, K 1.64, Y 4.09, E 1.83, R 2.76, W 2.89, F 3.31, P 2.37, Q 1.27, N 1.55, I 1.54, V 2.53, D 1.3
E14: R 2.03, Y 3.27, F 3.09, Q 2.93, P 3.5, V 2.86, D 1.84, N 1.1, A 1.67, W 2.96
T21: L 2.64, Y 1.34, I 2.63, F 2.01, A 2, Q 1.58, M 2.77, S 2.3, P 2.06, H 2.12, K 1.66, E 1.76, D 2.72, G 2.91, N 2.7, C 2.27, R 1.52
R15: A 3.73, G 3.8, K 3.37, M 2.04, F 2.54, V 2.81, P 2.19, Y 3.62, N 4.18, E 3.77, C 1.88, L 3.73, Q 1.77, I 3.42, D 1.79, W 3.37, T 5.08
S19: G 2.74, R 1.84, Y 1.65, N 3.03, F 1.57, Q 2.37, V 1.99, H 2.13, W 1.39, M 2.94, C 1.97, I 1.73, L 1.78, A 1.55, P 1.6, T 3.22
I23: M 2.91, C 1.67, V 3.26, S 2.69, N 2.37, D 2.81, E 1.57, H 2.56, R 2.21, P 3.13, Q 1.79, G 2.83, K 2.07, A 2.06, L 1.82, Y 2.6, F 3.33
C20: S 1.94, K 1.95, Q 2.42, G 1.56, I 2.61, T 1.51, R 3.05, A 2.33, Y 1.83, V 1.83, E 2.22, H 1.57, W 2.42, P 1.78, N 2.57, F 2.07, D 2.53
F24: Y 2.08, R 2.37, E 3.76, D 3.47, W 1.21, S 2.46, T 1.64, H 2.01, G 2.12, C 2.66, K 3.15, Q 2.56, M 2.35, N 2.48, L 2.47, A 2.02, P 2.78

Variants of: B2
Assay: as above
Conditions: c terminus: a fixed tail appended

Protein stability index: each site, then its substitutions
K3: G 4.65, C 4.28
K4: N 4.95, I 4.25, S 4.96, Y 4.52, R 4.39, H 4.17, G 4.57
K16: T 5.22, V 3.98, L 3.28
S13: V 4.02, T 5.02, H 5.38, A 4.97, M 4.56, I 3.86, L 4.21
L6: I 4.4, V 5.2, D 5.45, M 4.92, Q 4.79
G11: M 3.98, E 4.74, C 4.17, T 4.59, R 4.37, P 4.93, Q 4.72, K 4.68, F 3.69, H 4.8
L21: C 5.15, P 5.21, D 5.58
A24: V 4.26, H 4.76, S 4.75, P 4.91
A17: F 3.73, H 4.49, P 4.82, N 4.94
I9: H 4.66, W 4.65, R 5.12, C 5.4
I7: W 4.49, C 4.21, R 4.59, M 4.99, V 5.39, P 5.04, Y 4.73, T 5.04
K19: Q 4.78, I 3.38
E5: F 3.04, P 4.54, I 3.4, A 4.12, R 4.16
A1: L 4.72, P 4.67
K10: W 3.99, T 4.68, S 5.35, H 4.59
I12: K 5.36, D 5.91, A 5.28, E 4.54
P2: Q 4.88, C 4.5, L 3.97, F 3.62, R 4.02, N 4.39, G 4.68
A22: M 4.75, V 4.79, G 4.62, P 4.83, F 3.98, L 4.19, Q 5.15, N 4.59
E23: D 4.96, K 4.46, C 3.38, Y 3.37
A15: G 4.81, I 4.77, E 5.25, S 4.78, N 4.36, K 4.95, Y 3.58, T 5.07
N8: D 4.88, H 4.69, K 4.13, M 4.17, F 3.76
D18: P 5.17, K 4.78, H 4.29, E 3.83, N 4.04, Q 4.27, A 4.26, M 3.31, R 4.07
I20: G 5.1, R 4.75, T 5.16, L 4.86
E14: N 4.84, A 4.4, R 4.05, K 4.4, I 3.68, M 4.23, L 3.83, Y 3.65
